In one test the target is T1, RXFP3 (Homo sapiens, UniProt Q9NSD7).
T1 sequence (Q9NSD7 1-469): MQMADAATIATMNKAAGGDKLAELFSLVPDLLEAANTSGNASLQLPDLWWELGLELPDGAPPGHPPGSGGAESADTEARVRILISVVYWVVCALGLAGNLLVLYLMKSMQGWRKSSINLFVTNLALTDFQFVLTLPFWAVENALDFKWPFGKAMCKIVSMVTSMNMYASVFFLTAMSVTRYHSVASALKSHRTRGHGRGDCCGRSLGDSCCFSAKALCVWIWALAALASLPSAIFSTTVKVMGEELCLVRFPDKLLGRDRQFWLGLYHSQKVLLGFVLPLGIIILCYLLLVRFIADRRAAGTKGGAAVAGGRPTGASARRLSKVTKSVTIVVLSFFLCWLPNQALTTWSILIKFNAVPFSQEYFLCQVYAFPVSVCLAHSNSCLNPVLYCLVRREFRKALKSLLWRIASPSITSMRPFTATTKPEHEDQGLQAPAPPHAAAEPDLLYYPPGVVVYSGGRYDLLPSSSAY
The test can be described thus: Arrestin agonist mode. To be noted: read-out: RC50 (the source's name). Format: cell-based.

Another test concerns the target T2, relaxin-3 receptor (Rattus norvegicus, UniProt Q5Y987).
T2 construct: expressed a high level of the relaxin-3 receptor; from tissue; host or cells: rat brain, nucleus incertus (living animal)
T2 sequence (Q5Y987 1-469): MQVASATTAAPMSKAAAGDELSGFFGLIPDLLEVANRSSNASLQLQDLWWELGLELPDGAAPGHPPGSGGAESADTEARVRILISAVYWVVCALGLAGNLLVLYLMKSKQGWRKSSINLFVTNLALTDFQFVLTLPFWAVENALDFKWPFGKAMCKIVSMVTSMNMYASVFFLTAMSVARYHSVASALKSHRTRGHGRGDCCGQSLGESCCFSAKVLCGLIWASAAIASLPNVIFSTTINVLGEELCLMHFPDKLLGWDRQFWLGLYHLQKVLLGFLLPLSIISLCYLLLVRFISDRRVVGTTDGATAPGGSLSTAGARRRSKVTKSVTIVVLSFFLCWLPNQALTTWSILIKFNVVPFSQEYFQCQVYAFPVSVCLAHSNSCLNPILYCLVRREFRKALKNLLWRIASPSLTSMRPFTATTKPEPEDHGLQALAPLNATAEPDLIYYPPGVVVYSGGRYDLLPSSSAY
The test can be described thus: Central ODN antagonizes relaxin-3 induced hyperphagia. Format: in vivo. To be noted: injection into the nucleus incertus; rats. The procedure:
Rats were stereotaxically implanted with a bilateral guide cannula (26-ga, Plastics One) aimed at the nucleus incertus (guide cannula coordinates: ±0.5 lateral to midline, 9.5 mm […] to bregma, 5.8 mm ventral to skull; internal cannula aimed 7.8 mm ventral to skull). Recombinant human relaxin-3 was purchased (130-10, PreproTech Inc.) and ODN was synthesized by the Doyle laboratory. […] 24 h food intake was recorded in a Biodaq system (Research Diets, Inc).

The nature of test [1]: Insulin tolerance test after 4th ventricle ODN. The test is classed as in vivo, rat. The settings on record: 4th ventricle pretreatment then ODN 200 μg/2 μL; chow rats.
Test [2] in a line: 24 h body weight change in rats. The test is classed as in vivo, rat. The settings on record: 4th ventricle injection.
Test [3] can be described thus: Food intake and meal pattern after central injection in rats. Format: in vivo, rat. To be noted: for food intake: 4th ventricle injection. As to the method:
Rats were exposed to kaolin for at least 5 days prior to measuring kaolin consumption in pica testing. Except for studies conducted in the BioDaq, for all feeding studies rats were housed in hanging wire cages to allow for accurate measurement of food spillage.
For cannula implantation, rats were anesthetized by intraperitoneal injection of a mixture containing ketamine (90 mg/kg, Butler Animal Health Supply), xylazine (2.7 mg/kg, Anased), and acepromazine (0.64 mg/kg, Butler Animal Health Supply) (KAX) and then placed into a stereotaxic apparatus. Each rat was stereotaxically implanted with a guide cannula (26-ga, Plastics One) aimed at the fourth ventricle (guide cannula coordinates: on midline, 2.5 mm anterior to occipital suture, 5.2 mm ventral to skull; internal cannula aimed 7.2 mm ventral to skull) or the lateral ventricle (guide cannula coordinates: 1.5 mm lateral to midline, 0.9 mm posterior to bregma, 1.8 mm ventral to skull; internal cannula aimed 3.8 mm ventral to skull). For all cannulas, dummies (no projection beyond guide) were inserted in the guide cannula and left until infusions were performed. For all surgeries, rats received post-operative temperature support and analgesia was provided immediately following surgery and for two post-operative days (2 mg/kg meloxicam).

In another test the target is T3, CCR9 (Homo sapiens, UniProt P51686).
T3 sequence (P51686 1-369): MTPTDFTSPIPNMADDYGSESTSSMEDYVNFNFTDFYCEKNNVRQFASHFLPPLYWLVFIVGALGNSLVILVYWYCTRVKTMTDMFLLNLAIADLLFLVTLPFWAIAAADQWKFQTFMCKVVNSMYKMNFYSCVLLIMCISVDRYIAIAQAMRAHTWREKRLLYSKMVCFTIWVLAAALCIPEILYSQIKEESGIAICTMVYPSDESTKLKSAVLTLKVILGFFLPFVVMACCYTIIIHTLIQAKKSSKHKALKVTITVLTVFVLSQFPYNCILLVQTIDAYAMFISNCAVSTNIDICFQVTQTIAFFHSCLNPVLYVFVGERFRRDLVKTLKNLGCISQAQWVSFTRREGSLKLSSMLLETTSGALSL
Description: Arrestin agonist mode. Format: cell-based. The settings on record: read-out: RC50 (the source's name).

For another test, the target named is CCR8 (Homo sapiens, UniProt P51685). Description: Arrestin agonist mode. The settings on record: read-out: RC50 (the source's name). The test is classed as cell-based.
A further test has as its target T4, CCR4 (Homo sapiens, UniProt P51679).
T4 sequence (P51679 1-360): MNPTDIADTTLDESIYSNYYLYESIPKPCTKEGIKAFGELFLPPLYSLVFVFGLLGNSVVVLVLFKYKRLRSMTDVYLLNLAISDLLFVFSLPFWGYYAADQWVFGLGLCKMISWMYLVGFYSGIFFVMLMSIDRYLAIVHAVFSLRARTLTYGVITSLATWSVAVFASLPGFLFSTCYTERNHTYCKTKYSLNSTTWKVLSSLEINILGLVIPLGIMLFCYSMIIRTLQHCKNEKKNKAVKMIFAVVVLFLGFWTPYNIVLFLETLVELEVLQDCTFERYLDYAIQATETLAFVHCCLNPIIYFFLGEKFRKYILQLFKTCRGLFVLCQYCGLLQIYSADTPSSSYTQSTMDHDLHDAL
The test can be described thus: Arrestin agonist mode. The test is classed as cell-based. To be noted: read-out: RC50 (the source's name).

The next test has as its target PROKR1 (Homo sapiens, UniProt Q8TCW9). The test can be described thus: Arrestin agonist mode. The test is classed as cell-based. To be noted: read-out: RC50 (the source's name).
The target in the next test is PROKR2 (Homo sapiens, UniProt Q8NFJ6). Description: Arrestin agonist mode. The test is classed as cell-based. The settings on record: read-out: RC50 (the source's name).
PROKR2, sequence (Q8NFJ6 whole entry): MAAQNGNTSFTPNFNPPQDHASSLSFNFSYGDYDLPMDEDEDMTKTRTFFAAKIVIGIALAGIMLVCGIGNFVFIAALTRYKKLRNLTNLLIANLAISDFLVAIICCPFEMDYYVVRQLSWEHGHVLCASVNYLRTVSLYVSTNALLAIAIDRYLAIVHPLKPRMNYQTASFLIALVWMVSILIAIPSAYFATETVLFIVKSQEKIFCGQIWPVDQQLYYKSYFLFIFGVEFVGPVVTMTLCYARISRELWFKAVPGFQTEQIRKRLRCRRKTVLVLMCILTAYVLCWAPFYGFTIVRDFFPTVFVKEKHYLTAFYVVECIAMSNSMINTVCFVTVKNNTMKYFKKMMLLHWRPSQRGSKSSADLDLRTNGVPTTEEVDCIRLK
For another test, the target named is C5L2 (Homo sapiens, UniProt Q9P296). The test can be described thus: Arrestin agonist mode. Format: cell-based. To be noted: read-out: RC50 (the source's name).
C5L2, sequence (Q9P296 whole entry): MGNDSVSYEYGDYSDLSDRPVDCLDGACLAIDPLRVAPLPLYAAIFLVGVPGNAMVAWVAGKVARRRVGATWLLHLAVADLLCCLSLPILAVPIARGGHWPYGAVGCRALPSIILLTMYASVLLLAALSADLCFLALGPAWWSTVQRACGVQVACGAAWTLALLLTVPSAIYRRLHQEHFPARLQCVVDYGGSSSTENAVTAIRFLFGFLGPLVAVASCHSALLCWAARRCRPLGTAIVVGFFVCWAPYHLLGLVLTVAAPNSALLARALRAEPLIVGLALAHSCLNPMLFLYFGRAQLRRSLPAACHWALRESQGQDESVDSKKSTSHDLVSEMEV
A further test has as its target T5, C5aR1 (Homo sapiens, UniProt P21730).
T5 sequence (P21730 1-350): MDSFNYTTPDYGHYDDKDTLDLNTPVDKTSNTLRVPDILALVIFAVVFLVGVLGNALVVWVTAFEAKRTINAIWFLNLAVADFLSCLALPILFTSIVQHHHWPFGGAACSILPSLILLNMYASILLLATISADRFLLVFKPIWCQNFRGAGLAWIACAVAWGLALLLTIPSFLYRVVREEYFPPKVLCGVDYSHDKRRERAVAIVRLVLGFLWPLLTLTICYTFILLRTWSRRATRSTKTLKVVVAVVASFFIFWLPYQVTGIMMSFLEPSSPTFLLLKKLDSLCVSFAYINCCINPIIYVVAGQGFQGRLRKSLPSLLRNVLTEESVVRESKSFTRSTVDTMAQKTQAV
Description: Arrestin agonist mode. The test is classed as cell-based. The settings on record: read-out: RC50 (the source's name).

The target of another test is T6, CCR10 (Homo sapiens, UniProt P46092).
T6 sequence (P46092 1-362): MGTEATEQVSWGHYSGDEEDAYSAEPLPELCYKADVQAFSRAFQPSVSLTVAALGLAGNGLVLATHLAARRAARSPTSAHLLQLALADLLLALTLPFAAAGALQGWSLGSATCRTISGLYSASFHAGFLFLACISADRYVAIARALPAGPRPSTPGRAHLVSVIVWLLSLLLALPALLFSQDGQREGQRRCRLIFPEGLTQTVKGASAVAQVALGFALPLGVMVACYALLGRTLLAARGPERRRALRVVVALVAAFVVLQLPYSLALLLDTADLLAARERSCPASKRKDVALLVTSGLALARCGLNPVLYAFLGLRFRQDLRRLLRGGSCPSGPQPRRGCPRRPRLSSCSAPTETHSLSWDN
Description: Arrestin agonist mode. Format: cell-based. To be noted: read-out: RC50 (the source's name).

Setting [4] is: 4th ventricle, chow-maintained rats.

“Also recorded” adds a separate entry of the source.

PROKR1, sequence (Q8TCW9 whole entry): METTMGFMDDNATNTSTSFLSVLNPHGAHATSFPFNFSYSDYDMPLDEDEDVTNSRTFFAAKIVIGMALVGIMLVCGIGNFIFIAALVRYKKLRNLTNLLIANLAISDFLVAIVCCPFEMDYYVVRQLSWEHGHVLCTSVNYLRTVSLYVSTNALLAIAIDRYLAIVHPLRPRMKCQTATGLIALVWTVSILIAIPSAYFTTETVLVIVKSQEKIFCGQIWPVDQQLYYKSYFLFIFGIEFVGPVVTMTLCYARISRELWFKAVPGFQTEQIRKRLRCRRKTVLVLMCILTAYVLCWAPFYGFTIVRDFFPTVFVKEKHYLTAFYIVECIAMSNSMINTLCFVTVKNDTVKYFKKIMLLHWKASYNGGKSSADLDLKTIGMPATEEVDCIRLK

B1: Relaxin-3: Recombinant human relaxin-3 (130-10, PreproTech); control agonist of RXFP3 (protein)
chain 1: RAAPYGVRLCGREFIRAVIFTCGGSRWRRSDILAHEAMGDTFPDADADEDSLAGELDEAMGSSEWLALTKSPQAFYRGRPSWQGTPGVLRGSRDVLAGLSSSCCKWGCSKSEISSLC
chain 2: B1 chain 1
B1: the EC50 with RXFP3 came to 11.9 nM. In the test with relaxin-3 receptor, the “24-hour food intake and body weight” value was “increased 24-hour food intake and body weight”. Further, the “effect of pretreatment on ODN improvement in insulin tolerance” value in [1] was “block hindbrain ODN improvements in insulin tolerance”.

B2: recombinant DBI protein: Rat recombinant diazepam binding inhibitor (DBI) protein (LS-G136996, Lifespan Biosciences) (protein, UniProt P11030 2-87, looked up)
Acyl-CoA-binding protein: SQADFDKAAEEVKRLKTQPTDEEMLFIYSHFKQATVGDVNTDRPGLLDLKGKAKWDSWNKLKGTSKENAMKTYVEKVEELKKKYGI
Regarding B2, the “24 h body weight change” value in test [2] (HFD-maintained rats) and in test [2] (chow-maintained rats) was “not significantly decreased” each time. In addition, the food intake entry in test [3] (HFD-maintained rats) is “not high-fat diet (HFD) rats”; in [3] (HFD-maintained rats, listed as DBI), “did not decrease food intake in HFD-maintained rats”; in test [3] (chow-maintained rats), “suppresses food intake in chow fed rats; also recorded: hypophagic in chow”; in [3] (chow-maintained rats, listed as DBI), “significantly reduced food intake at 4, 5, and 7-24 hours post injection; also recorded: decreased food intake at 4, 5, and 7-24 hours post injection”. Also, the number of bouts result in test [3] (setting [4]) was “decreased the number of bouts at 8 and 21 hours post injection”. In [3] (setting [4]), the number of meals entry was “decreased the number of meals at 8-10 and 12-21 hours post injection”. Also, the “time spent in bouts” value in [3] (setting [4]) is “did not alter the time spent in bouts”. Moreover, the “time spent in meals” value in test [3] (setting [4]) was “decreased the time spent in meals 8-24 hours post injection”.

B3: CCL25: control agonist (protein)
chain: QGVFEDCCLAYHYPIGWAVLRRAWTYRIQEVSGSCNLPAAIFYLPKRHRKVCGNPKSREVQRAMKLLDARNKVFAKLHHNTQTFQAGPHAVKKLSSGNSKLSSSKFSNPISSSKRNVSLLISANSGL
With B3, the EC50 in the test with CCR9 came out at 173 nM.

B4: CCL1: control agonist (protein)
chain: KSMQVPFSRCCFSFAEQEIPLRAILCYRNTSSICSNEGLIFKLKRGKEACALDTVGWVQRHRKMLRHCPSKRK
With B4, in the test with CCR8, the EC50 was determined as 45.8 nM.

B5: CCL22: control agonist (protein)
chain: GPYGANMEDSVCCRDYVRYRLPLRVVKHFYWTSDSCPRPGVVLLTFRDKEICADPRVPWVKMILNKLSQ
As for B5, the EC50 with CCR4 came to 3.44 nM.

B6: EG VEGF: control agonist (protein)
chain: AVITGACERDVQCGAGTCCAISLWLRGLRMCTPLGREGEECHPGSHKVPFFRKRKHHTCPCLPNLLCSRFPDGRYRCSMDLKNINF
With B6, the EC50 with PROKR1 turned out to be 17.7 nM; with PROKR2, 10.6 nM.

B7: Complement C5a: control agonist (protein)
chain: TLQKKIEEIAAKYKHSVVKKCCYDGACVNNDETCEQRAARISLGPRCIKAFTECCVVASQLRANISHKDMQLGR
On to B7, for which the EC50 was found to be 1.57 nM in the test with C5L2 and 1.38 nM in the test with C5aR1.

B8: CCL27: control agonist (protein)
chain: FLLPPSTACCTQLYRKPLSDKLLRKVIQVELQEADGDCHLQAFVLHLAQRSICIHPQNPSLSQWFEHQERKLHGTLPKLNFGMLRKMG
Take B8: the EC50 with CCR10 amounted to 26.3 nM.

Values taken from patent publication US20260184748A1, “COMPOSITIONS COMPRISING OCTADECANEUROPEPTIDES (ODN) AND SYNTHETIC DERIVATIVES THEREOF AND METHODS OF USE FOR MODULATION OF FOOD INTAKE, OBESITY, BODY WEIGHT, NAUSEA, AND EMESIS” (The Trustees of the University of Pennsylvania, priority 2022, published 2026).
